This is an account of results in paper PMC8915792 (Proceedings of the National Academy of Sciences of the …, 2022).

This series concerns the molecule itself. As to the kind of experiment: fluorescence polarisation.

B1: HaloTag-ABS3 (human talin-1 C-terminal actin-binding domain, residues 2,293 to 2,541, as a HaloTag fusion protein) (domain or fragment)
chain: TEWVDPEDPTVIAENELLGAAAAIEAAAKKLEQLKPRAKPKEADESLNFEEQILEAAKSIAAATSALVKAASAAQRELVAQGKVGAIPANALDDGQWSQGLISAARMVAAATNNLCEAANAAVQGHASQEKLISSAKQVAASTAQLLVACKVKADQDSEAMKRLQAAGNAVKRASDNLVKAAQKAAAFEEQENETVVVKEKMVGGIAQIIAAQEEMLRKERELEEARKKLAQIRQQQYKFLPSELRDEH
For orientation: Kd means the free concentration of one partner at which half of the binding sites on the other are occupied at equilibrium, for simple one-to-one binding. B1: the equilibrium dissociation constant (Kd) was 1.9 ± 0.2 µM.
